In US11312781B2, “Antigen binding molecules that bind LIGHT” (Capella Bioscience Ltd., priority 2018, dated 2022):
Numbering of substitutions follows the chain as printed.

How the values were obtained:
[1] = molecular target: T1, DcR3 binding to membrane LIGHT (EL4-LIGHT cells) (Homo sapiens, UniProt O43557); assay: Competition binding of anti-membrane LIGHT antibodies with DcR3-His on EL4-LIGHT cells; details: mAb at up to 100 nM
T1 construct: expressed in transfected cells; host or cells: EL4 mouse lymphoma cells, stably transduced
T1 sequence (O43557 whole entry): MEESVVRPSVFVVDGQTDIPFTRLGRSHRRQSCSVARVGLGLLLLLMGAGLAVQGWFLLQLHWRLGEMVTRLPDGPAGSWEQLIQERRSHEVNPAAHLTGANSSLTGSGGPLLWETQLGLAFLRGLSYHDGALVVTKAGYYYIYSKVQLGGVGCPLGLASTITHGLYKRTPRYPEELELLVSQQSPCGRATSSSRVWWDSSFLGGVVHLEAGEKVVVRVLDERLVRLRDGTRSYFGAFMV
Procedure: DcR3 (TNFRSF6B) is a decoy receptor that competes with receptors for ligand binding. DcR3 can bind and neutralise LIGHT with high affinity and TL1A and FasL with lower affinity (Zhan C et al. Structure. 2011, 19:162-71 “Decoy strategies: the structure of TL1A:DcR3 complex”). Stably transduced LIGHT-expressing EL4 cells (mouse lymphoma cell line; EL4-LIGHT) were used for the flow cytometry-based competition-binding analysis.
EL4-LIGHT cells (0.25×10^6) were preincubated with anti-membrane LIGHT mAbs (0-300 nM) for 15 min at 4° C. followed by incubation with DcR3-His tagged (1 nM, Creative BioMart; ref:TNFRSF6B-552H, lot:962512) for 30 min at 4° C. The samples were then incubated with mouse anti-histag antibody (diluted 1:500, Biolegend, cat. no. 652502) for 30 minutes at 4° C., followed by incubation with anti-mouse APC (dil 1:500, BDBiosciences, cat. no. 550826) for 30 minutes at 4° C. The tubes were washed three times after each of the detection antibody stages and flow cytometry analysis was performed. Specific mean fluorescence intensity (MFI) obtained from the binding of DcR3-His to LIGHT on EL4 cells were used to determine the levels of competition binding.

[2] = tested on: wild type and mutated membrane LIGHT; assay: Alanine scanning mutagenesis of membrane LIGHT and flow cytometry (HEK293FF cells); assay type: binding, human
Source text: The full length LIGHT gene was synthesized by GeneArt (ThermoFisher Scientific) and cloned into the mammalian expression vector pcDNA 3.1(+). The following Ala mutations were introduced into the LIGHT gene: 30 single amino acid alanine substitutions from F57A to E86A; 2 single amino acid alanine substitutions; G188A, R189A; one serine substitution, A190S; 17 single amino acid alanine substitutions; T191A to V207A and 10 four amino acid alanine substitutions, 60-63, 64-67, 68-71, 72-75, 76-79, 80-83, 84-87, 88-91, 92-95 and 96-99. Constructs were reconstituted according to manufacture instructions, using DEPC-treated and sterile filtered water. Competent TOP10 E. coli cells were transformed with 100 ng of each construct and a single colony from each construct was picked and used to inoculate 10 ml of LB/carb100/glu2% medium and grown overnight at 37° C., 200 rpm. The extraction of the construct DNA was performed using the Qiagen QIAprep Spin Miniprep Kit (250) and the concentration was determined by measuring the O.D. at 260 nm in a spectrophotometer.
HEK293FF cells were cultured in Freestyle™293 expression medium (ThermoFisher scientific cat. no. 12338018) supplemented with 2 mM L-Glutamine. The day of transfection the cells were seeded in a 24-well plate at 0.6×10^6 cells/well. Lipofectamine 2000 (ThermoFisher scientific), 3 μl, was mixed with 50 μl OptiMEM medium (GIBCO) and then added to 50 μl Opti-MEM medium containing 3 ug plasmid DNA and incubated for 20 min at RT to form DNA-Lipofectamine 2000 complexes which were then added to the HEK293FF cells and incubated at 37° C., 5% CO2 for 24 hours. For each construct, in duplicate, 0.60×10^6 cells/well were used in a 96 well round bottom plate. Cells were centrifuged for 3 minutes at 300×g at 4° C., the supernatant discarded and the cells washed with 150 μl FACS buffer (0.5% FBS in phosphate buffered saline). This process was repeated 3 times. For each construct, […] cells/well were incubated with anti-LIGHT antibodies at the EC50 concentration and with positive controls of anti-LIGHT mAb MAB664 (R&D Systems), mAb F19 (EP2292663) or LTBR-Fc (R&D Systems), in a final volume of 50 μl/well for 30 min at 4° C., with shaking. The wells were washed 3 times as above and 50 μl/well of goat anti-human IgG FITC (1:1500 dilution in FACS buffer, SIGMA F9512-2ML) or goat anti-mouse APC (1/500 dilution in FACS buffer, BDBioscience 550826), as appropriate, was added to the wells and incubated for 30 min at 4° C. protected from the light, with shaking. The cells were then washed as above, resuspended in 100 μl of FACS buffer and binding of the antibodies to the constructs was measured using flow cytometry and a total of 10,000 cells were acquired for each sample. Controls of buffer and secondary antibody only as well as HEK293FF non transfected cells were also used.
All of the mAbs of this invention show a similar profile in that their epitope is located at amino acids 188-197 of LIGHT. […] The epitope of the mAbs of this invention defined by alanine scanning mutagenesis are residues 188-197 of LIGHT. This is visually depicted in FIG. 8 utilising a 3D visualisation of the LIGHT trimer from the crystal structure of LIGHT from Liu et al. (Structure 22: 1252-62; 2014). This would result in the mAbs binding to the “tip” of the LIGHT trimer and explaining the 1:1 binding. The impact of this epitope would result in […] less dosing of mAb 3B04 being required to neutralise membrane LIGHT compared to, for example, mAbs F19 and F23 (of EP2292663) which bind both soluble and membrane LIGHT equally and bind LIGHT in the ratio 3:1.

[3] = tested on: DSS-induced colitis in hu-NOG mice; assay: DSS-induced acute colitis in humanized (hu-NOG) mice; assay type: in vivo, mouse (hu-NOG)
Procedure: The experiments were carried out with the NOD/Shi-scid/IL-2Rγnull immunodeficient mouse strain (NOG) engrafted with CD34+ hematopoietic stem cells isolated from human cord blood as described in Manfroi B et al. (Cancer Res. 2017; 77:1097-1107). The reconstitution of the human immune system in the mice occurred for at least 14 weeks, and hu-mice were used that had at least 25% human CD45+/total CD45 cells. Female hu-NOG mice were randomised into 3 groups (n=10) taking into account the humanization rate and the CD34+ cell donors. All animal studies described in this study have been reviewed and approved by the local ethic committee (CELEAG). Mice were allowed to acclimate to the experimental environment for 5 days prior to the beginning of the experiment. The DSS was administrated for 7 days, from day 2 to 8. The DSS (3%) was added to the drinking water (ad libitum) and freshly renewed every two days.
All treatments started before the DSS-induced colitis. 3B04 variant 16 (5 mg/kg) and the isotype control and anti-TNF (Humira) antibodies (10 mg/kg) were administrated i.p. on days 0, 3, 6, 9. The experiment was terminated on day 12. The following parameters were recorded daily for 12 days: body weight in grams (g); diarrhea and stool consistency; bleeding and mortality. The global clinical score was calculated as follows: […]

[4] = tested on: CMV stimulated human PBMC; assay: Human PBMC antigen specific (CMV) recall response in vitro, cytokines by Luminex; assay type: cell-based; details: CMV stimulation, 5 day incubation
Procedure: In order to test the efficacy of anti-LIGHT mAbs on stimulated PBMC a recall antigen CMV (cytomegalovirus) lysate was utilised to stimulate PBMC from human CMV-positive donors (ImmunXperts, Belgium). 200 000 cells per well in RPMI (Thermofisher cat. no. 11875) plus 10% FBS (GIBCO) was added to CMV lysate (Serion immunologics cat. no. BA109VS, final concentration 10 ug/ml) with test mAbs in a volume of 200 ul. After a 5 day incubation at 37C and 5% CO2 the media was recovered by centrifugation and assayed for cytokines by Luminex immunoassay (ThermoFisher).

B1: 3A07: parental anti-membrane LIGHT antibody, VL SEQ ID NO 97, VH SEQ ID NO 101; chimeric IgG4 mAb (antibody, listed as Homo sapiens, V domains shown)
VH: QVQLQQSGAELVRPGAPVTLSCKASDYTFTDSEIHWVKQTPVHGLEWIGEIDPETGGTAYNQKFKGKATLTADKSSSTAYMELRSLTSEDSAVYYCSRETDYFFDYWGQGTTLTVSS
VL: ENVLTQSPAIMSASPGEKVTMTCSASSSVSYMYWYQQRPGSSPRLLIYDTSNLASGVPVRFSGSGSGTSYSLTISRMEAEDAATYYCQQWSSYPLTFGSGTKLEIK
[1]
  Inhibition of DcR3 binding to membrane LIGHT: only partially inhibit

B2: 3C10: parental anti-membrane LIGHT antibody, VL SEQ ID NO 89, VH SEQ ID NO 93; chimeric IgG4 mAb (antibody, listed as Homo sapiens, V domains shown)
VH: B1 VH with Q1E, P17S
VL: B1 VL with E1D, N2V, L4M, S7T, R38K, S99A, I105L
[1]
  Inhibition of DcR3 binding to membrane LIGHT: only partially inhibit

B3: 2E08: parental anti-membrane LIGHT antibody, VL SEQ ID NO 81, VH SEQ ID NO 85; chimeric IgG4 mAb (antibody, listed as Homo sapiens, V domains shown)
VH: QVQMKESGAELVRPGVSVKISCKGSGYTFTDYAIHWVKQSHAKTLEWIGVISTYYGDASYNQKFKGKATMTVDKSSSTAYMELARLTSDDSAIYYCARSRGEYGNYDAMDYWGQGTSVTVSS
VL: DIVLTQSPASLAVSLGQRATISCKASQSVDYDGDSYMNWYQQKPGQPPKLLIYAASNLESGIPARFSGSGSGTDFTLNIHPVEEEDAATYYCQQSNEDPLTFGAGTKLELK
[1]
  Inhibition of DcR3 binding to membrane LIGHT: only partially inhibit

B4: LTBR-Fc: LTBR-Fc receptor fusion protein (R&D Systems), positive control in alanine scanning (protein)
chain: SQPQAVPPYASENQTCRDQEKEYYEPQHRICCSRCPPGTYVSAKCSRIRDTVCATCAENSYNEHWNYLTICQLCRPCDPVMGLEEIAPCTSKRKTQCRCQPGMFCAAWALECTHCELLSDCPPGTEAELKDEVGKGNNHCVPCKAGHFQNTSSPSARCQPHTRCENQGLVEAAPGTAQSDTTCKNPLEPLPPEMSGTMLM
modifications: left off: a dimerising Fc or GST
notes: LTBR-Fc receptor fusion protein (R&D Systems), positive control in alanine scanning
[2]; single substitutions F57A to E86A and four amino acid substitutions 60-63 to 96-99
  Binding to LIGHT alanine substitution constructs versus WT LIGHT: no difference in binding
[2]; substitutions G188A to V207A
  Binding to LIGHT amino acid substitution constructs versus WT LIGHT: no difference in binding

B5: 3B04_var16: deimmunised 3B04 IgG4 variant: 3B04_VL_4 (SEQ ID NO 33) + 3B04_VH_4 (SEQ ID NO 37) (antibody, listed as Homo sapiens, V domains shown)
VH: QVQLVQSGAEVKKPGASVKVSCKASGYTFTDYEMHWVRQAPGQGLEWMGEIDPETGDTAYAQKFQGRVTLTADKSTSTAYMELSSLRSEDTAVYYCSRETDYFFDYWGQGTLVTVSS
VL: DIQMTQSPSSLSASVGDRVTITCRASENIYGALNWYQQKPGKAPKLLIYGATNLAEGVPSRFSGSGSGRDYTLTISSLQPEDFATYYCQNVLTTPWTFGQGTKLEIKR
[3]; 3B04 variant 16 5 mg/kg, Humira 10 mg/kg
  Effect on global clinical score compared to the anti-TNF positive control: significantly superior (p<0.05)
[3]; i.p. days 0, 3, 6, 9, versus IgG control, FIG. 9
  Global clinical score: significant (p<0.05) decrease in global clinical score as early as day 2
[4]; FIG. 11A
  IL-17 production from PBMC: significantly (p<0.05) inhibited
[4]; FIG. 11B
  IFN gamma production from PBMC: significantly (p<0.05) inhibited
[4]; FIG. 11C
  TNF production from PBMC: significantly (p<0.05) inhibited
[4]; FIG. 11D
  IL-6 production from PBMC: significantly (p<0.05) inhibited
[4]; FIG. 11E
  IL-12p70 production from PBMC: significantly (p<0.05) inhibited
